Measurements published in US20250177453A1 (Harvard, published 2025).

Target: T1, human PD-L1 expressed on the surface of SC-islet cells (human, UniProt Q9NZQ7 19-290)
T1 construct: whole, on cells; also called PD-L1 on B2P SC-islet cells
Test: flow cytometry, labelled PD-1-Fc on dissociated SC-islet cells

T1 sequence (Q9NZQ7 19-290): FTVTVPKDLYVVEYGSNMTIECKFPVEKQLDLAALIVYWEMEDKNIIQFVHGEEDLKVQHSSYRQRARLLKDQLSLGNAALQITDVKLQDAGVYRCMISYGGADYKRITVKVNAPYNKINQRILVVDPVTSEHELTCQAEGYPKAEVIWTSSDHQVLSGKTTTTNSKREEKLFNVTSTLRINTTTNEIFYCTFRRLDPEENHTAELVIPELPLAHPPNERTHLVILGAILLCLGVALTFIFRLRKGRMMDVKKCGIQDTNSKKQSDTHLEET

B1: PE-conjugated mouse PD1-Fc (Fc fusion, UniProt Q02242 25-167, looked up)
chain: LEVPNGPWRSLTFYPAWLTVSEGANATFTCSLSNWSEDLMLNWNRLSPSNQTEKQAAFCNGLSQPVQDARFQIIQLPNRHDFHMNILDTRRNDSGIYLCGAISLHPKAKIEESPGAELVVTERILETSTRYPSPSPKPEGRFQ
modifications: PE-conjugated (fluorescently labelled)
notes: It says only 'fluorescently labelled, soluble' PD-1-Fc; also called soluble mouse PD-1-Fc; soluble mouse PD-1; not shown: Fc part
binding result: binds
